Source: patent US20240209061A1, “FUSION PROTEINS AND USES THEREOF” (Pfizer Inc., priority 2020, published 2024)

Experiments:
[1] = target: CD28 expressed on Jurkat T cell line / human T cells (human) (UniProt P10747); experiment: cell-based or functional assay
[2] = target: T1, recombinant soluble CD28 (Homo sapiens, UniProt P10747); experiment: ELISA binding to recombinant soluble CD28; details: standard ELISA, FIG. 2A
T1 construct: Recombinant soluble CD28 and CTLA-4 proteins (from Creative BioMart, Product #CD28-3910H, CTLA-4-2232H) were immobilized; purchased Creative BioMart CD28-3910H
Procedure: Binding affinity of purified CD80-Fc fusion proteins (WT and variant) to recombinant soluble CD28 and CTLA-4 proteins was determined by standard ELISA. Recombinant soluble CD28 and CTLA-4 proteins (from Creative BioMart, Product #CD28-3910H, CTLA-4-2232H) were immobilized on 96 well microtiter plate (Thermo Scientific, Product #436110) in bicarbonate buffer at 4° C. overnight. After washing with 1×PBS containing 0.05% Tween 20 (wash buffer) plates were incubated with blocking buffer, 5% BSA in PBS, for 1 hour at room temperature. A serial dilution of CD80-Fc fusion proteins and human IgG1 isotype control antibody was prepared in blocking buffer, added into the plate and incubated at room temperature for 1 hour. Following washing 3× with wash buffer, 1:4000 dilution of HRP conjugated secondary anti-human IgG1 antibody (R&D Systems, MAB110-100) was added into the plate and incubated at room temperature for 1 hour. Plates were washed 3× with wash buffer and a 100 μl of LumiGlo (SeraCare, Product #5430-0040) reagent added into each well, incubated for 5 minutes at room temperature before reading luminescence signal in EnSight™ plate reader (PerkinElmer).

[3] = tested on: Jurkat-IL-2-Luc reporter cells; experiment: Jurkat-IL-2-Luc and HCT116-CD64 reporter co-stimulation assay; type: cell-based, human
Source text: A T cell co-stimulation assay was designed based on T Cell Activation Bioassay (IL-2) Kit from Promega (Product #J1631). The assay consisted of a genetically engineered Jurkat T cell line that expresses luciferase reporter driven by an IL-2 promoter. Co-engagement of T cell antigen receptor (TCR/CD3) and CD28 co-stimulatory receptor induces activation of T cells and downstream intracellular signaling pathways that in turn regulate the expression of luciferase reporter. As described above, HCT116 human colon cancer cell line was used for TCR engagement using the CDH3×CD3 bispecific and genetically engineered by lentiviral transduction to express human FCγRI.
A 96 well culture plate was seeded with HCT116 parental or HCT116-CD64 cells at 40,000 cells per well in 100 μL RPMI with 10% HI FBS and grown overnight at 37° C. in CO2 incubator. To each well, Jurkat reporter cells (100,000 per well) and 10 μL of the CDH3×CD3 bispecific (8 ng/ml final concentration) were added. 10 μL of serial dilutions of variant CD80-Fc fusion proteins with concentrations ranging from 0-1000 ng/ml (final concentrations per well) was added with appropriate controls. Assay plates were incubated for 6 hours at 37° C. in CO2 incubator for before harvesting culture supernatants and transferring to new plates. Following equilibration, 80 μL of BioGlo luminescence reagent (BioGlo Luciferase assay kit, Promega, G7940) was added into each well. Plates were incubated for 5 minutes before reading luminescence on the EnSight™ plate reader (PerkinElmer).
Jurkat is an immortalized human T cell line, and the Jurkat IL-2-reporter assay assesses the CD28-mediated signaling resulting in activation of the IL-2 promoter. The activity of CD80-Fc fusion proteins was measured using the co-culture HCT116-CD64-Jurkat IL-2 reporter assay, as described in Example 2, but using 20 ng/ml CDH3×CD3 bispecific.

[4] = tested on: NY-ESO1-TCR+ Jurkat reporter cells; experiment: Jurkat-NYESO1-IL-2-Luc and A375-CD64 co-stimulation assay; type: cell-based, human
Source text: Jurkat-IL-2-Luc reporter cells (Promega, Product #J1631) were engineered with T cell receptor, TCR (Wargo J. Cancer Immunol Immunother 2009; Zhao Y. J Immunol 2005, Li Y, Nat Biotechnol 2005) against HLA-A2 restricted NY-ESO1 (SLLMWITQC-SEQ ID NO: 19) epitope using lentiviral transduction system. Human melanoma cells A375, which express human HLA-A*0201, were transduced with lentiviral vector containing endogenous codon for NY-ESO1 gene (Refseq accession NM_001327.2, CCDS14758.1). Upon expression, the construct underwent proteolytic cleavage at the ubiquitin/epitope junction, thus generating free, cytoplasmic epitope, which can be translocated into the endoplasmic reticulum and loaded onto class I HLA. A375-NY-ESO1 positive cells were treated with IFNγ to induce HLA expression and NY-ESO1 antigen presentation. The HLA expression and the antigen presentation was confirmed by Western Blot. The NY-ESO1^+-A375 cells were further engineered to express human FCγRI (CD64, GenBank:AAA58414.1, RefSeq:P12314.1) for cell surface assembly and displaying of CD80-Fc fusion proteins. The expression of FCγRI was confirmed by flow cytometry analysis.
A 96 well culture plate was seeded with NY-ESO1^+-A375 cells or NY-ESO1^+/FCγRI^+-A375 at 40,000 cells per well in 100 µL growth media (RPMI, 10% Heat Inactivated FBS, 200 μg/mL Hygromycin B, 1 mM sodium pyruvate, 0.1 mM MEM NEAA, 1 μg/mL puromycin) containing 10 ng/ml of human IFNγ (R&D Systems, product #285-IF) to induce MHC-A2 expression and grown overnight at 37° C. in CO2 incubator. To each well, NY-ESO1-TCR^+ Jurkat reporter cells, 100,000 (in 20 μL media), were added. 20 μL of serial dilutions of variant CD80-Fc fusion proteins with concentrations ranging from 0-1000 ng/ml (final concentrations per well) was added with appropriate controls. Assay plates were incubated for 6 hours at 37° C. in CO2 incubator. Following equilibration, 80 μL BioGlo luminescence reagent (BioGlo Luciferase assay kit, Promega, G7940) was added into each well. Plates were incubated for 5 minutes before reading luminescence on the EnSight™ plate reader (PerkinElmer).

[5] = tested on: EMT6 murine breast cancer cells; experiment: EMT6 breast cancer model, combination with talazoparib; type: in vivo, mouse
Procedure: EMT6murine breast cancer cells (3×10^5) were orthotopically implanted in the mammary fat pad of female Balb/c mice. When tumors reached ˜90 mm^3 (day 5 after implantation), mice were randomized and dosed with PBS vehicle control, CD80-K89Q-D90Q-E23C-A26C-Fc (0.1 or 1 mg/kg), and/or 0.33 mg/kg talazoparib (Tala). CD80-D90Q-Fc was dosed on Days 0 and 3, talazoparib was dosed daily. Tumor volume was determined by caliper measurements obtained in 2 dimensions and calculated as width^2×length/2. Error bars are depicted as ±SEM

[6] = Thermal stability by Differential Scanning calorimetry (DSC); type: physicochemical; details: PBS
Procedure: There is a correlation between the thermal stability of a protein with the overall stability of the protein. Enhanced thermal stability often provides improved manufacturability and longer shelf life/stability. Thermal stability of variant CD80-Fc fusion proteins was assessed by Differential Scanning calorimetry (DSC). Variant CD80-Fc fusion proteins were analyzed using a MicroCal VP-DSC instrument. […] Tables 8-10 show the first thermal transition temperature (Tm1) of CD80-Fc fusion proteins and the enhanced thermal stability of variant CD80-Fc fusion proteins compared to CD80-WT-Fc fusion proteins.

[7] = tested on: human peripheral blood mononuclear cells (PBMCs); experiment: Human PBMC IL-2 production assay with plate-bound anti-CD3; type: cell-based; details: Donor 418; 0.3 ug/ml anti-CD3
Procedure: The ability of the variant CD80-Fc fusion proteins to promote IL-2 production in the context of anti-CD3 (to stimulate T cell receptor signaling) in human peripheral blood mononuclear cells (PBMCs) was tested. To bind anti-CD3 antibody on the plate, the anti-human-CD3 (clone HIT3a, BD Pharmingen) was incubated in 96-well plates at 4° C. overnight at 1 μg/ml unless otherwise noted. Human PBMCs were isolated from freshly collected human whole blood using Ficoll-Paque Plus. Human PBMCs (100,000 per well) were incubated with plate-bound anti-CD3 and the indicated concentrations of soluble CD80-Fc fusion protein in RPMI+10% HI-FBS, pen/strep, sodium pyruvate and non-essential amino acids. After 48 hours incubation, supernatants were collected and IL-2 measured by the Quantikine human IL-2 ELISA kit from R&D.
Additional CD80-Fc fusion proteins were tested in the same PBMC assay, at the concentration of anti-human-CD3 (clone HIT3a, BD Pharmingen) noted.

[8] = AC-SINS self-interaction assay; type: physicochemical; details: Table 6
Procedure: Variant CD80-Fc fusion proteins were assessed by measuring non-specific binding using a DNA- and insulin-binding ELISA (Avery et al., MAbs. 2018 February/March; 10(2): 244-255) and for self-interaction in an AC-SINS assay (affinity-capture self-interaction nanoparticle spectroscopy; Liu et al., 2014, mAbs 6:483-92). DNA- and insulin-binding scores were calculated as the signal ratio of the ELISA signal of the CD80-Fc fusion protein at 10 μg/ml to the ELISA signal in the absence of the Fc-fusion protein (buffer only). For the AC-SINS assay, proteins are captured by anti-human Fc antibodies coated on gold nanoparticles. […] The score ranges obtained from these in vitro assays correlate well with in vivo clearance using huFcRn transgenic (Tg32) mouse. Therapeutic proteins with high scores are at high risk for rapid clearance and unfavorable PK and therapeutics that score low are at low risk and favorable PK.

In the case of CD80-T28V-T57V-Fc (Fc fusion), the IL-2 EC50, human PBMC assay, donor 418, anti-CD3 0.3 ug/ml [1] is reported as 2.64 nM.

Work on CD80-V22F-T28V-T57V-Fc (Fc fusion) yielded an IL-2 EC50, human PBMC assay, donor 418, anti-CD3 0.3 ug/ml [1] of 5.13 nM.

In the case of “CD80-D90K-Fc: variant CD80 ECD (D90K) fused to human IgG1 Fc”, the “binding affinity to CD28 compared to WT CD80-Fc” value [2] is reported as “increased binding affinity to CD28”, the “enhanced co-stimulation compared to CD80-WT-Fc” value [3] is reported as roughly 8 fold and the “enhanced co-stimulation compared to CD80-WT-Fc” value [4] is reported as “about 4 fold”.

In the case of `Cn1ncnc1[C@H]1c2n[nH]c(=O)c3cc(F)cc(c23)N[C@@H]1c1ccc(F)cc1` [Talazoparib, (8S,9R)-5-fluoro-8-(4-fluorophenyl)-9-(1-methyl-1H-1,2,4-triazol-5-yl)-8,9-dihydro-2H-pyrido[4,3,2-de]phthalazin-3(7H)-one, reference compound], the “% tumor growth inhibition” value ([5]; Day 20, Talazoparib 0.33 mg/kg alone) is reported as 10.9% and the “Day 20 tumor volume” value ([5]; Talazoparib 0.33 mg/kg daily alone) is reported as 1750.1 mm^3.

For “CD80-K89Q-Fc: variant CD80 ECD (K89Q) fused to human IgG1 Fc”, the “binding affinity to CD28 compared to WT CD80-Fc” value [2] was “increased binding affinity to CD28”.

With “CD80-V22F-T28V-T57V-Fc: non-cysteine stabilized variant CD80-Fc fusion protein” the “DSC Tm1” value [6] was 64 °C and the EC50 [7] was 5.13 nM.

With “CD80-K89D-D90Q-Fc: variant CD80 ECD (K89D, D90Q) fused to human IgG1 Fc” the “binding affinity to CD28 compared to WT CD80-Fc” value [2] was “increased binding affinity to CD28”, the “enhanced co-stimulation compared to CD80-WT-Fc” value [3] was “about 4 fold” and the “enhanced co-stimulation compared to CD80-WT-Fc” value [4] was “about 8 fold”.

For “CD80-V11L-T62Y-Fc: non-cysteine stabilized variant CD80-Fc fusion protein”, the “DSC Tm1” value [6] was 58.76 ± 0.14 °C and the EC50 [7] was 3.34 nM.

With “CD80-K89Q-D90Q-161C-Fc: disulfide stabilized variant CD80-Fc fusion protein (K89Q, D90Q, I61C)” the “AC-SINS Score” value [8] was −1 and the “DSC Tm1” value [6] was 64.10 ± 0.17 °C.

In the case of “CD80-T28V-T57V-Fc: non-cysteine stabilized variant CD80-Fc fusion protein”, the “DSC Tm1” value [6] is reported as 64 °C and the EC50 [7] is reported as 2.64 nM.

For CD80-V11L-V22F-Fc (Fc fusion), the IL-2 EC50, human PBMC assay, donor 418, anti-CD3 0.3 ug/ml [1] was 4.95 nM.

For “CD80-K89D-Fc: variant CD80 ECD (K89D) fused to human IgG1 Fc”, the “binding affinity to CD28 compared to WT CD80-Fc” value [2] was “increased binding affinity to CD28”.

In the case of “CD80-D90N-Fc: variant CD80 ECD (D90N) fused to human IgG1 Fc”, the “enhanced co-stimulation compared to CD80-WT-Fc” value [4] is reported as “about 4 fold”.

In the case of CD80-V11L-T62Y-Fc (Fc fusion), the IL-2 EC50, human PBMC assay, donor 418, anti-CD3 0.3 ug/ml [1] is reported as 3.34 nM.

In the case of “CD80-K89Q-D90Q-V22C-G45C-Fc: disulfide stabilized variant CD80-Fc fusion protein (K89Q, D90Q, V22C, G45C)”, the “AC-SINS Score” value [8] is reported as −1 and the “DSC Tm1” value [6] is reported as 68.67 ± 0.22 °C.

CD80-D90Q-E23C-A26C-Fc (Fc fusion) gave an IL-2 EC50, human PBMC assay with plate-bound anti-CD3 (average of 5 donors) [1] of 24.2 nM.

For “CD80-K89D-D90K-Fc: variant CD80 ECD (K89D, D90K) fused to human IgG1 Fc”, the “binding affinity to CD28 compared to WT CD80-Fc” value [2] was “increased binding affinity to CD28” and the “enhanced co-stimulation compared to CD80-WT-Fc” value [3] was roughly 8 fold.

For “CD80-K89D-D90N-Fc: variant CD80 ECD (K89D, D90N) fused to human IgG1 Fc”, the “binding affinity to CD28 compared to WT CD80-Fc” value [2] was “increased binding affinity to CD28”, the “enhanced co-stimulation compared to CD80-WT-Fc” value [3] was “about 4 fold” and the “enhanced co-stimulation compared to CD80-WT-Fc” value [4] was “about 8 fold”.

For “CD80-V11L-V22F-Fc: non-cysteine stabilized variant CD80-Fc fusion protein”, the “DSC Tm1” value [6] was 61.52 ± 0.12 °C and the EC50 [7] was 4.95 nM.
